Target: T1, His-Miro2(220–592) (UniProt Q8IXI1 220-592)
T1 construct: Mitochondrial Rho GTPase 2 (Miro2), amino acids 220–592, in pET-32a; source: E. coli BL21, purified
Experiment: pull-down; GST pull-down of recombinant GST-PS2 fragments with recombinant His-Miro2 fragments; bound material eluted with SDS sample buffer, SDS-PAGE and Western blot (Fig. 5C, D)
Details: both partners purified

T1 sequence (Q8IXI1 220-592): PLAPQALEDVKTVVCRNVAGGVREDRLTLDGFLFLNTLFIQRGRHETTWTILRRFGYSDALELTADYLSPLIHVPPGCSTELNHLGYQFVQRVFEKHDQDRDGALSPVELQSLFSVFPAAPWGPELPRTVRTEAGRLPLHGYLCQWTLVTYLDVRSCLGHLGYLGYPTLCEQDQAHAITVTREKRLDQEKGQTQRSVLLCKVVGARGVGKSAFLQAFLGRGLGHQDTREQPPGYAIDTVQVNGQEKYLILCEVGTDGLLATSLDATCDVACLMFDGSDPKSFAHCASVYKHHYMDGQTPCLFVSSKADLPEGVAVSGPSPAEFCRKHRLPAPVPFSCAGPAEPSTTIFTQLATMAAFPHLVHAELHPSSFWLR

binding result: binds
B1: GST-PS2(271–361) (domain or fragment)
chain: not shown
notes: source: E. coli BL21, purified

— article PMC11249618, “Presenilin2 D439A Mutation Induces Dysfunction of Mitochondrial Fusion/Fission Dynamics and Abnormal Regulation of GTPase Activity” (Molecular Neurobiology, 2023)
